Here are results for 13 molecules from US20160297884A1 (Pfizer, published 2016).

The target of one assay is T1, Human BCMA (human, UniProt Q02223 1-54, limits assumed).
T1 construct: also called huBCMA; B-cell maturation antigen
T1 sequence (looked up): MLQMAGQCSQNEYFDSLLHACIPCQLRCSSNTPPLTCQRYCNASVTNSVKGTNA
As to the kind of experiment: SPR, IgG immobilised, human BCMA analyte. As to the method:
(§1) All experiments were performed on a Bio-Rad Proteon XPR36 surface Plasmon resonance biosensor (Bio-Rad, Hercules, Calif.). […] The analysis temperature for the immobilization was 25° C. and the running buffer was HBS-T+(10 mM HEPES, 150 mM NaCl, 0.05% Tween-20, pH 7.4). Channels were activated in the analyte (horizontal) direction by injecting a mixture of 1 mM ECD and 0.25 mM NHS for 3 minutes at a flow rate of 30 μL/min. IgGs were immobilized on the activated spots by injecting them in the ligand (vertical) direction at 20 μg/mL in 10 mM Acetate pH 4.5 buffer for 1.5 minutes at […]. The activated surfaces were blocked by injecting 1M ethanolamine, pH 8.5 in the analyte direction for 3 minutes at 30 μL/min.
(§2) The analysis temperature for the BCMA binding analysis was 37° C. or 25° C. in a running buffer of HBS-T+, supplemented with 1 mg/mL BSA. A kinetic titration method was employed for the interaction analysis as described in Abdiche, et al. Human BCMA (huBCMA) or cynomolgus monkey BCMA (cyBCMA) analyte was injected in the analyte direction using a series of injections from low to high concentration. The concentrations used were 0.08 nM, 0.4 nM, 2 nM, 10 nM and 50 nM (a 5-membered series, with a 5-fold dilution factor and top concentration of 50 nM). The association time for a given analyte dilution was two minutes. Immediately after the 50 nM BCMA injection, dissociation was monitored for 2 hours.
(§3) The sensorgrams were double-referenced and fit to a 1:1 Langmuir with mass transport kinetic titration model in BIAevaluation Software version 4.1.1 (GE Lifesciences, Piscataway, N.J.).
Background: In SPR one partner is held on a chip, and binding of the other changes the refractive index at the surface.

In another assay the target is T2, Cynomolgus monkey BCMA (cynomolgus monkey).
T2 construct: Soluble analyte in SPR; also called cyBCMA; Cyno BCMA
As to the kind of experiment: SPR, IgG immobilised, cyno BCMA analyte. As to the method:
as §1, §2, §3

B1: A02_Rd4_6nM_C01 (antibody, V domains shown)
VH: EVQLLESGGGLVQPGGSLRLSCAASGFTFSSYAMNWVRQAPGKGLEWVSAITASGGSTYYADSVKGRFTISRDNSKNTLYLQMNSLRAEDTAVYYCARYWPMSLWGQGTLVTVSS
VL: EIVLTQSPGTLSLSPGERATLSCRASQSVSAYYLAWYQQKPGQAPRLLMYDASIRATGIPDRFSGSGSGTDFTLTISRLEPEDFAVYYCQQYERWPLTFGQGTKVEIK
notes: IgG
In the assay with Human BCMA, B1 displayed a Kd of 0.03 nM, a koff of 9.2e-05 s⁻¹ and a kon of 3.11e+06 M⁻¹ s⁻¹. In the assay with Cynomolgus monkey BCMA, this molecule returned a Kd of 0.401 nM, a koff of 0.000583 s⁻¹ and a kon of 1.45e+06 M⁻¹ s⁻¹.

B2: A02_Rd4_6nM_C26 (antibody, V domains shown)
VH: EVQLLESGGGLVQPGGSLRLSCAASGFTFSSYAMNWVRQAPGKGLEWVSAISDSGGSTYYADSVKGRFTISRDNSKNTLYLQMNSLRAEDTAVYYCARYWPMSLWGQGTLVTVSS
VL: EIVLTQSPGTLSLSPGERATLSCRASQSVSSLYLAWYQQKPGQAPRLLMYDASIRATGIPDRFSGSGSGTDFTLTISRLEPEDFAVYYCQQYQVWPLTFGQGTKVEIK
notes: IgG
In the assay with Human BCMA, B2 registered a Kd of 0.033 nM, a koff of 0.000139 s⁻¹ and a kon of 4.26e+06 M⁻¹ s⁻¹. Further, in the assay with Cynomolgus monkey BCMA, binding was put at a Kd of 0.203 nM, the koff was found to be 0.000448 s⁻¹ and the kon was 2.21e+06 M⁻¹ s⁻¹.

B3: A02_Rd4_6nM_C08 (antibody, V domains shown)
VH: EVQLLESGGGLVQPGGSLRLSCAASGFTFSSYAMNWVRQAPGKGLEWVSAILDSGGSTYYADSVKGRFTISRDNSKNTLYLQMNSLRAEDTAVYYCARYWPMSPWGQGTLVTVSS
VL: EIVLTQSPGTLSLSPGERATLSCRASQSVSFLYLAWYQQKPGQAPRLLMYDASIRATGIPDRFSGSGSGTDFTLTISRLEPEDFAVYYCQQYGSWPLTFGQGTKVEIK
notes: IgG
In the assay with Human BCMA, B3 returned a Kd of 0.188 nM, a koff of 0.000738 s⁻¹ and a kon of 3.92e+06 M⁻¹ s⁻¹. In the assay with Cynomolgus monkey BCMA, this molecule returned a Kd of 5.07 nM, a koff of 0.0113 s⁻¹ and a kon of 2.23e+06 M⁻¹ s⁻¹.

B4: A02_Rd4_6nM_C16 (antibody, V domains shown)
VH: EVQLLESGGGLVQPGGSLRLSCAASGFTFSSYAMNWVRQAPGKGLEWVSAISDFGGSTYYADSVKGRFTISRDNSKNTLYLQMNSLRAEDTAVYYCARYWPMDIWGQGTLVTVSS
VL: EIVLTQSPGTLSLSPGERATLSCRASQSVSDLYLAWYQQKPGQAPRLLMYDASIRATGIPDRFSGSGSGTDFTLTISRLEPEDFAVYYCQQYQTWPLTFGQGTKVEIK
notes: IgG; also called P5AC16
In the assay with Human BCMA, B4 showed a Kd of 0.09 nM, a koff of 0.000141 s⁻¹ and a kon of 1.56e+06 M⁻¹ s⁻¹. Further, in the assay with Cynomolgus monkey BCMA, the Kd came out at 0.118 nM, the koff came to 0.000158 s⁻¹ and the kon came out at 1.34e+06 M⁻¹ s⁻¹.

B5: A02_Rd4_6nM_C05 (antibody, V domains shown)
VH: EVQLLESGGGLVQPGGSLRLSCAASGFTFSSYAMNWVRQAPGKGLEWVSAIFASGGSTYYADSVKGRFTISRDNSKNTLYLQMNSLRAEDTAVYYCARYWPMTPWGQGTLVTVSS
VL: EIVLTQSPGTLSLSPGERATLSCRASQSVSSSYLAWYQQKPGQAPRLLMYDASIRATGIPDRFSGSGSGTDFTLTISRLEPEDFAVYYCQQYQRWPLTFGQGTKVEIK
notes: IgG
In the assay with Human BCMA, B5 came in with a Kd of 0.099 nM, a koff of 0.000308 s⁻¹ and a kon of 3.1e+06 M⁻¹ s⁻¹. Also, in the assay with Cynomolgus monkey BCMA, the affinity, expressed as Kd, was 0.95 nM; the koff worked out at 0.00129 s⁻¹; the kon turned out to be 1.36e+06 M⁻¹ s⁻¹.

B6: A02_Rd4_6nM_C25 (antibody, V domains shown)
VH: EVQLLESGGGLVQPGGSLRLSCAASGFTFSSYAMNWVRQAPGKGLEWVSAISDSGGSRWYADSVKGRFTISRDNSKNTLYLQMNSLRAEDTAVYYCARYWPMTPWGQGTLVTVSS
VL: EIVLTQSPGTLSLSPGERATLSCRASQSVSSSYLAWYQQKPGQAPRLLMYDASIRATGIPDRFSGSGSGTDFTLTISRLEPEDFAVYYCQQYLDWPLTFGQGTKVEIK
notes: IgG
B6: in the assay with Human BCMA, the dissociation constant (Kd) came out at 0.065 nM, the koff was determined as 0.00018 s⁻¹ and the kon came to 2.75e+06 M⁻¹ s⁻¹. Also, in the assay with Cynomolgus monkey BCMA, the Kd was 0.22 nM, the koff was 0.00033 s⁻¹ and the kon came to 1.5e+06 M⁻¹ s⁻¹.

B7: A02_Rd4_6nM_C07 (antibody, V domains shown)
VH: EVQLLESGGGLVQPGGSLRLSCAASGFTFSSYAMNWVRQAPGKGLEWVSAIGGSGGSLPYADSVKGRFTISRDNSKNTLYLQMNSLRAEDTAVYYCARYWPMDSWGQGTLVTVSS
VL: EIVLTQSPGTLSLSPGERATLSCRASQSVSPYYLAWYQQKPGQAPRLLMYDASIRATGIPDRFSGSGSGTDFTLTISRLEPEDFAVYYCQQYERWPLTFGQGTKVEIK
notes: IgG
B7: in the assay with Human BCMA, the affinity, expressed as Kd, was 0.128 nM; the koff worked out at 0.000189 s⁻¹; the kon amounted to 1.48e+06 M⁻¹ s⁻¹. In the assay with Cynomolgus monkey BCMA, this molecule returned a Kd of 1.14 nM, a koff of 0.000786 s⁻¹ and a kon of 691000 M⁻¹ s⁻¹.

B8: A02_Rd4_6nM_C04 (antibody, V domains shown)
VH: EVQLLESGGGLVQPGGSLRLSCAASGFTFSSYAMNWVRQAPGKGLEWVSAIMSSGGPLYYADSVKGRFTISRDNSKNTLYLQMNSLRAEDTAVYYCARYWPMALWGQGTLVTVSS
VL: EIVLTQSPGTLSLSPGERATLSCRASQSVSALYLAWYQQKPGQAPRLLMYDASIRATGIPDRFSGSGSGTDFTLTISRLEPEDFAVYYCQQYQVWPLTFGQGTKVEIK
notes: IgG
In the case of B8, in the assay with Human BCMA, the Kd is 0.135 nM, the koff was determined as 0.000603 s⁻¹ and the on-rate (kon) was determined as 4.47e+06 M⁻¹ s⁻¹. Moreover, in the assay with Cynomolgus monkey BCMA, the Kd stood at 0.381 nM, the koff turned out to be 0.000831 s⁻¹ and the kon is 2.18e+06 M⁻¹ s⁻¹.

B9: A02_Rd4_6nM_C22 (antibody, V domains shown)
VH: EVQLLESGGGLVQPGGSLRLSCAASGFTFSSYAMNWVRQAPGKGLEWVSAVLDSGGSTYYADSVKGRFTISRDNSKNTLYLQMNSLRAEDTAVYYCARYWPMTPWGQGTLVTVSS
VL: EIVLTQSPGTLSLSPGERATLSCRASQSVSSSYLAWYQQKPGQAPRLLMYDASIRATGIPDRFSGSGSGTDFTLTISRLEPEDFAVYYCQQYQVWPLTFGQGTKVEIK
notes: IgG
With B9, in the assay with Human BCMA, binding was characterised by a dissociation constant (Kd) of 0.054 nM, the koff was found to be 0.000182 s⁻¹ and the kon was 3.38e+06 M⁻¹ s⁻¹. In the assay with Cynomolgus monkey BCMA, this molecule registered a Kd of 0.176 nM, a koff of 0.000324 s⁻¹ and a kon of 1.84e+06 M⁻¹ s⁻¹.

B10: A02_Rd4_6nM_C03 (antibody, V domains shown)
VH: EVQLLESGGGLVQPGGSLRLSCAASGFTFSSYAMNWVRQAPGKGLEWVSAISDSGGSTYYADSVKGRFTISRDNSKNTLYLQMNSLRAEDTAVYYCARYWPMDIWGQGTLVTVSS
VL: EIVLTQSPGTLSLSPGERATLSCRASQSVSNLYLAWYQQKPGQAPRLLMYDASIRATGIPDRFSGSGSGTDFTLTISRLEPEDFAVYYCQQYQGWPLTFGQGTKVEIK
notes: IgG
In the assay with Human BCMA, B10 returned a Kd of 0.075 nM, a koff of 0.000126 s⁻¹ and a kon of 1.69e+06 M⁻¹ s⁻¹. In the assay with Cynomolgus monkey BCMA, the Kd was 0.158 nM, the koff was determined as 0.000185 s⁻¹ and the kon was determined as 1.17e+06 M⁻¹ s⁻¹.

B11: A02_Rd4_6nM_C10 (antibody, V domains shown)
VH: EVQLLESGGGLVQPGGSLRLSCAASGFTFSSYAMNWVRQAPGKGLEWVSAISDSGGSCWYADSVKGRFTISRDNSKNTLYLQMNSLRAEDTAVYYCARYWPMTPWGQGTLVTVSS
VL: EIVLTQSPGTLSLSPGERATLSCRASQSVEMSYLAWYQQKPGQAPRLLMYDASIRATGIPDRFSGSGSGTDFTLTISRLEPEDFAVYYCQQYAHWPLTFGQGTKVEIK
notes: IgG
For B11, in the assay with Human BCMA, binding was characterised by a dissociation constant (Kd) of 0.07 nM, the koff is 0.000315 s⁻¹ and the kon turned out to be 4.51e+06 M⁻¹ s⁻¹. In the assay with Cynomolgus monkey BCMA, this molecule registered a Kd of 0.472 nM, a koff of 0.000898 s⁻¹ and a kon of 1.9e+06 M⁻¹ s⁻¹.

B12: A02_Rd4_6nM_C19 (antibody, V domains shown)
VH: EVQLLESGGGLVQPGGSLRLSCAASGFTFSSYAMNWVRQAPGKGLEWVSAISDSGGSRWYADSVKGRFTISRDNSKNTLYLQMNSLRAEDTAVYYCARYWPMSDWGQGTLVTVSS
VL: EIVLTQSPGTLSLSPGERATLSCRASQSVSVLYLAWYQQKPGQAPRLLMYDASIRATGIPDRFSGSGSGTDFTLTISRLEPEDFAVYYCQQYLAWPLTFGQGTKVEIK
notes: IgG
As to B12, in the assay with Human BCMA, the Kd is 0.049 nM, the koff came to 0.000148 s⁻¹ and the kon is 3e+06 M⁻¹ s⁻¹. In the assay with Cynomolgus monkey BCMA, this molecule gave a Kd of 0.26 nM, a koff of 0.000661 s⁻¹ and a kon of 2.54e+06 M⁻¹ s⁻¹.

B13: A02_Rd4_6nM_C23 (antibody, V domains shown)
VH: EVQLLESGGGLVQPGGSLRLSCAASGFTFSSYAMNWVRQAPGKGLEWVSAISDSGGSGWYADSVKGRFTISRDNSKNTLYLQMNSLRAEDTAVYYCARYWPMSLWGQGTLVTVSS
VL: EIVLTQSPGTLSLSPGERATLSCRASQSVSVEYLAWYQQKPGQAPRLLMYDASIRATGIPDRFSGSGSGTDFTLTISRLEPEDFAVYYCQQYARWPLTFGQGTKVEIK
notes: IgG
Consider B13, for which, in the assay with Human BCMA, the Kd amounted to 0.021 nM, the koff came to 0.000255 s⁻¹ and the kon worked out at 1.22e+07 M⁻¹ s⁻¹. In the assay with Cynomolgus monkey BCMA, this molecule yielded a Kd of 0.157 nM, a koff of 0.000414 s⁻¹ and a kon of 2.63e+06 M⁻¹ s⁻¹.

As usually defined, the Kd is the equilibrium constant for the complex coming apart. As a reminder, the koff is a measure of how fast the partners let go of each other. What is called kon is the rate constant with which the complex forms.
